We go through one protein from patent US20110212853.

The target of the data set is recombinant human MCP-1 N1pE (human MCP-1 with an N-terminal pyroglutamate).

B1: recombinant human dipeptidyl peptidase 4 (protein)
chain: NKGTDDATADSRKTYTLTDYLKNTYRLKLYSLRWISDHEYLYKQENNILVFNAEYGNSSVFLENSTFDEFGHSINDYSISPDGQFILLEYNYVKQWRHSYTASYDIYDLNKRQLITEERIPNNTQWVTWSPVGHKLAYVWNNDIYVKIEPNLPSYRITWTGKEDIIYNGITDWVYEEEVFSAYSALWWSPNGTFLAYAQFNDTEVPLIEYSFYSDESLQYPKTVRVPYPKAGAVNPTVKFFVVNTDSLSSVTNATSIQITAPASMLIGDHYLCDVTWATQERISLQWLRRIQNYSVMDICDYDESSGRWNCLVARQHIEMSTTGWVGRFRPSEPHFTLDGNSFYKIISNEEGYRHICYFQIDKKDCTFITKGTWEVIGIEALTSDYLYYISNEYKGMPGGRNLYKIQLSDYTKVTCLSCELNPERCQYYSVSFSKEAKYYQLRCSGPGLPLYTLHSSVNDKGLRVLEDNSALDKMLQNVQMPSKKLDFIILNETKFWYQMILPPHFDKSKKYPLLLDVYAGPCSQKADTVFRLNWATYLASTENIIVASFDGRGSGYQGDKIMHAINRRLGTFEVEDQIEAARQFSKMGFVDNKRIAIWGWSYGGYVTSMVLGSGSGVFKCGIAVAPVSRWEYYDSVYTERYMGLPTPEDNLDHYRNSTVMSRAENFKQVEYLLIHGTADDNVHFQQSAQISKALVDVGVDFQAMWYTDEDHGIASSTAHQHIYTHMSHFIKQCFSLP
For B1, the “N-terminal cleavage, Maldi-TOF mass spectrometry” value was “MCP-1 is protected by a N-terminal pGlu-residue, which confers resistance against N-terminal cleavage by aminopeptidases, e.g. DP4”.
